Reference: patent publication US20160228546A1 (CYTOMX THERAPEUTICS, published 2016)
Blank lines part the entries; values can stand above or below the binder they belong to.

Columns and labels:
anti-VEGF IgG antibody [1] = molecular target: T1, anti-VEGF IgG antibody (DyLight-labelled in the FACS analyses.); experiment: FACS of eCPX3.0 clones at 3 concentrations of DyLight labeled anti-VEGF
T1 construct: It was DyLight-labelled in the FACS analysis; also called anti-VEGF antibody; DyLight labeled anti-VEGF

anti-VEGF scFv AB = molecular target: T2, anti-VEGF scFv AB; experiment: FACS, peptide displayed on E. coli
T2 construct: VL-linker-VH designed from ranibizumab; also called anti-VECF scFv

anti-VEGF IgG antibody [2] = molecular target: T1, anti-VEGF IgG antibody; experiment: method not stated

T2 sequence (scFv, as listed by the source): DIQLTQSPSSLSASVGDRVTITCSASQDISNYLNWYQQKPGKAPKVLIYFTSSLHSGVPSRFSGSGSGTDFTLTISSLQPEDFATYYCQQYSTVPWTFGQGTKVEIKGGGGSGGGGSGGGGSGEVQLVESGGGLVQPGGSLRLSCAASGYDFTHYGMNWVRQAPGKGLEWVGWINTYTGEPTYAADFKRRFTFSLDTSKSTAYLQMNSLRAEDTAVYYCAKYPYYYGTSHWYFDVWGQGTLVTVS
T1 sequence (VH, as listed by the source limits assumed, chain 1 of 2): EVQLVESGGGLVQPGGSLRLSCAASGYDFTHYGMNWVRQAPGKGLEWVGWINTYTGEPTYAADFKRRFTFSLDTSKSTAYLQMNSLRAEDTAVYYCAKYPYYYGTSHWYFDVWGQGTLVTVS
T1 sequence (VL, as listed by the source limits assumed, chain 2 of 2): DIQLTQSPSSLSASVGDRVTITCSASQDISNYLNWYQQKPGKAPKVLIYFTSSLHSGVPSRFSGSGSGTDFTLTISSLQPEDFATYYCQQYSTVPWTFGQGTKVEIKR

- fold higher affinity than 306P (anti-VEGF IgG antibody [1]): ≥ 10 fold
B1: JS1825 (peptide)
peptide: SCTAWQSMVEQRCYFG

- fold higher affinity than 306P (anti-VEGF IgG antibody [1]): ≥ 10 fold
B3: JS1829 (peptide)
peptide: PCSKWESMVLQSCYFG

- binding result (anti-VEGF scFv AB): binds
B7: JS311 (peptide)
peptide: VHAWEQLVIQELYHC
notes: also called 311MM

- binding result (anti-VEGF scFv AB): binds
B8: JS283 (peptide)
peptide: ATAVWNSMVKQSCYMQG
notes: also called 283MM

Further lines, the binder ahead of its results:

B2: JS315 (peptide)
peptide: GAMACYNIFEYWCSAMK
notes: also called 315MM
- binding result (anti-VEGF scFv AB): binds

B4: JS313 (peptide)
peptide: GVGLCYTILEQWCEMGR
notes: also called 313MM
- binding result (anti-VEGF scFv AB): binds

B5: JS306 (peptide)
peptide: PCSEWQSMVQPRCYYGG
- Kd (anti-VEGF IgG antibody [2]): > 600 nM

B6: JS1827 (peptide)
peptide: PCSAWQSMVEQRCYFG
- fold higher affinity than 306P (anti-VEGF IgG antibody [1]): ≥ 10 fold

B9: JS292 (peptide)
peptide: GHGMCYTILEDHCDRVR
notes: also called 292MM
- binding result (anti-VEGF scFv AB): binds
